From US20230357429A1 (JANUX THERAPEUTICS, published 2023) come the findings set out here.

What is called EC50 is the concentration that produces a half-maximal response. Lower therefore signals an effect from little substance. As a reminder, the IC50 is the midpoint of a concentration-inhibition curve.

For one assay, the target named is T1, Human TROP2 Full length (human, UniProt P09758 31-323).
T1 sequence: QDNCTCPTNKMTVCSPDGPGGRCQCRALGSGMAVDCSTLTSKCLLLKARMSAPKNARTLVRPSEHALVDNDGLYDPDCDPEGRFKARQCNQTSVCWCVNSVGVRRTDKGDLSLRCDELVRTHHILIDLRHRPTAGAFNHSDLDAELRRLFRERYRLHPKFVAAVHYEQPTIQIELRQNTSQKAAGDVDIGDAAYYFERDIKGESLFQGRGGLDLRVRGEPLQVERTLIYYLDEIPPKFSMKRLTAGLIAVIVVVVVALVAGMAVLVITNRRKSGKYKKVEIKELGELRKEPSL
As to the kind of experiment: cell-based or functional assay.

For the next assay, the target named is T2, Cyno TROP2 Full length (cynomolgus monkey, UniProt P09758 31-323 (human entry)).
T2 chain: T1 sequence with M32V, S63N, I200V, M262V, T268S
Kind of assay: cell-based or functional assay.

For a further assay, the target named is T3, CD3 (human, UniProt P07766 23-126, limits assumed, biotinylated).
T3 construct: also called biotinylated CD3; CD3-biotin
As to the kind of experiment: ELISA; biotinylated CD3 on neutravidin plates, PC titrated, HRP secondary.

For assay [1], the target named is T4, Human TROP2 ECD (31-274 AA) (human, UniProt P09758 31-274, biotinylated).
T4 construct: also called biotinylated TROP2; TROP2-biotin
T4 sequence: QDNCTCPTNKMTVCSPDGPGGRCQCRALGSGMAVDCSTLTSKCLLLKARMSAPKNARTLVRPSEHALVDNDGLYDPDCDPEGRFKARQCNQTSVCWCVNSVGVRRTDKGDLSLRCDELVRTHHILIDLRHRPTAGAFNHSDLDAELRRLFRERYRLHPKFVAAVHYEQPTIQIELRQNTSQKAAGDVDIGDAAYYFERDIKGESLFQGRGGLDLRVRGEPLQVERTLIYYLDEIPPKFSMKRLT
Kind of assay: ELISA; biotinylated TROP2 on neutravidin plates, PC titrated, HRP secondary. On the technique in general: ELISA stands for enzyme-linked immunosorbent assay.
Protocol: (§1) TROP2 TCEs and masked polypeptide complexes (PCs) were evaluated for their ability to bind TROP2 and CD3 by ELISA. […] The TCE or PC constructs diluted in buffer were then added to the antigen coated plates. Binding was measured using a standard horse radish peroxidase secondary antibody. The concentration of TCE or PC required to achieve 50% maximal signal (EC₅₀) was calculated.

The target in assay [2] is T5, TBD-11 (HC R98A).
T5 construct: Fab; also called HC R98A mutant
As to the kind of experiment: competition ELISA, peptide vs Fab binding to captured biotin-TROP2.
Protocol: (§2) ELISA-based competitive inhibition studies were used to test the ability of each peptide to inhibit the TBDs from binding to TROP2. […] Inhibitory peptides were titrated in a dilution series and pre-incubated with a constant concentration of antibody. Inhibitory peptide and antibody mixtures were then incubated on the antigen captured plates. A horseradish peroxidase conjugate secondary antibody was then used to detect the antibody binding to the plate-bound antigen. The ELISA signal was plotted versus log-scale peptide concentration. A dose dependent decrease of signal was indicative of peptides that compete for antibody binding to the cognate antigen. Graphpad Prism software was used to calculate the inhibitory concentrations of peptide required to achieve 50% maximal signal (IC₅₀s).

Assay [3] concerns the target T6, TBD-17 (HC S104A).
T6 construct: Fab; also called HC S104A mutant
The description is as above.
Protocol: as §2

The target of assay [4] is T7, TBD-21 (HC F108A).
T7 construct: Fab; also called HC F108A mutant
The assay is described as above.
Protocol: as §2

The target of assay [5] is T8, TBD-22 (HC D109A).
T8 construct: Fab; also called HC D109A mutant
Described as above.
Protocol: as §2

Assay [6] deals with T5, TBD-11 (HC R98A). Described as above. This is another data set of the same source.
Protocol: as §2
Assay [7] deals with T6, TBD-17 (HC S104A). The description is as above. The source holds these as a separate data set.
Protocol: as §2
The target in assay [8] is T7, TBD-21 (HC F108A). The assay is described as above. The source holds these as a separate data set.
Protocol: as §2
The target in assay [9] is T8, TBD-22 (HC D109A). The description is as above. This is another data set of the same source.
Protocol: as §2

Where a chain is given by its changes, count along the chain named. Numbers in names are those of the source. Read-outs that look alike come from different tables or passages of the source. Where no end group is shown, it is not given here. Where only a bound is given, the exact number is not on record here.

T5 sequence (VH, as listed by the source, chain 1 of 2, one chain of several): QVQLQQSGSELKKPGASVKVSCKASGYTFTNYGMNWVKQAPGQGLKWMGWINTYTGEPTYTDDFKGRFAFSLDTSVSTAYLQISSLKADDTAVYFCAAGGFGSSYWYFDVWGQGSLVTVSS
T3 sequence (P07766 23-126 limits assumed): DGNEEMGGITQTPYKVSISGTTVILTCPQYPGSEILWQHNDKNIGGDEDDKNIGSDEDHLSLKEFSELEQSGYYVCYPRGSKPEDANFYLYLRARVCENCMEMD
T6 sequence (VH, as listed by the source, chain 1 of 2, one chain of several): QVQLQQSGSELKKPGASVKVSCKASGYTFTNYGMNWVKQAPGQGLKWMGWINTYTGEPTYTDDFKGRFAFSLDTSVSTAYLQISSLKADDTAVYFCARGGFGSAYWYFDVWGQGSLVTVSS
T8 sequence (VH, as listed by the source, chain 1 of 2, one chain of several): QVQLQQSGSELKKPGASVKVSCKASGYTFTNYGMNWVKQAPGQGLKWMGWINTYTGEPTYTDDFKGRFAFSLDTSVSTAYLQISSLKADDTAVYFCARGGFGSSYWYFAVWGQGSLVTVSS
Protocol for CD3: as §1

B1: PC-34 (bispecific antibody)
light: GGVDFCALYHWPICYQGGGGSGGLSGRSDAGSPLGLAGSGGSDIQLTQSPSSLSASVGDRVSITCKASQDVSIAVAWYQQKPGKAPKLLIYSASYRYTGVPDRFSGSGSGTDFTLTISSLQPEDFAVYYCQQHYITPLTFGAGTKVEIKRTVAAPSVFIFPPSDEQLKSGTASVVCLLNNFYPREAKVQWKVDNALQSGNSQESVTEQDSKDSTYSLSSTLTLSKADYEKHKVYACEVTHQGLSSPVTKSFNRGEC
heavy: not shown
notes: Masked polypeptide complex: anti-TROP2 F108A, anti-CD3 H101A; CD3 mask …
In the case of B1, the “H292 Cytotoxicity EC50 (pM)” value in the assay with Human TROP2 Full length was greater than 100000 pM. Besides, the “CyTROP2 HEK293 EC50 (pM)” value with Cyno TROP2 Full length came to 16500 pM. In addition, the EC50 with CD3 turned out to be 283 nM; in [1] it was 828 nM.

B2: PC-42 (bispecific antibody)
light: B1 light
heavy: EVQLVESGGGLVQPGGSLRLSCAASGSTFYTAVMGWVRQAPGKGLEWVAAIRWTALTTSYADSVKGRFTISRDGAKTTLYLQMNSLRPEDTAVYYCAARGTLGLFTTADSYDYWGQGTLVTVSSGGGGSGGGSGGASQCLGPEWEVCPYGGGGSGGGLSGRSDAGSPLGLAGSGGGSEVQLVESGGGLVQPGGSLKLSCAASGFTFNKYAMNWVRQASGKGLEWVGRIRSKYNNYATYYADSVKDRFTISRDDSKNTAYLQMNSLKTEDTAVYYCVRHGNFGNSYISYWAYWGQGTLVTVSSGGGGSGGGGSGGGGSQTVVTQEPSFSVSPGGTVTLTCRSSTGAVTSGNYANWVQQTPGQAPRGLIGGTKFLAPGVPDRFSGSILGNKAALTITGAQADDESDYYCVLWYSNRWVFGGGTKLTVLGGGGSQVQLQQSGSELKKPGASVKVSCKASGYTFTNYGMNWVKQAPGQGLKWMGWINTYTGEPTYTDDFKGRFAFSLDTSVSTAYLQISSLKADDTAVYFCARGGFGSSYWYADVWGQGSLVTVSSASTKGPSVFPLAPSSKSTSGGTAALGCLVKDYFPEPVTVSWNSGALTSGVHTFPAVLQSSGLYSLSSVVTVPSSSLGTQTYICNVNHKPSNTKVDKKVEPKSC
notes: Masked polypeptide complex: anti-TROP2 F108A, anti-CD3 with P41S, A49G, N87S ; E227D
On to B2, for which, in the assay with Human TROP2 Full length, the “H292 Cytotoxicity EC50 (pM)” value stood at 12200 pM. Also, the EC50 was 60.2 nM in the assay with CD3 and 630 nM in assay [1].

B3: PC-39 (bispecific antibody)
light: B1 light
heavy: EVQLVESGGGLVQPGGSLRLSCAASGSTFYTAVMGWVRQAPGKGLEWVAAIRWTALTTSYADSVKGRFTISRDGAKTTLYLQMNSLRPEDTAVYYCAARGTLGLFTTADSYDYWGQGTLVTVSSGGGGSGGGSGGYLCGPDGDETLACYGGGGSGGGLSGRSDAGSPLGLAGSGGGSEVQLVESGGGLVQPGGSLKLSCAASGFTFNKYAMNWVRQASGKGLEWVGRIRSKYNNYATYYADSVKDRFTISRDDSKNTAYLQMNSLKTEDTAVYYCVRHGNFGNSYISYWAYWGQGTLVTVSSGGGGSGGGGSGGGGSQTVVTQEPSFSVSPGGTVTLTCRSSTGAVTSGNYANWVQQTPGQAPRGLIGGTKFLAPGVPDRFSGSILGNKAALTITGAQADDESDYYCVLWYSNRWVFGGGTKLTVLGGGGSQVQLQQSGSELKKPGASVKVSCKASGYTFTNYGMNWVKQAPGQGLKWMGWINTYTGEPTYTDDFKGRFAFSLDTSVSTAYLQISSLKADDTAVYFCARGGFGSSYWYADVWGQGSLVTVSSASTKGPSVFPLAPSSKSTSGGTAALGCLVKDYFPEPVTVSWNSGALTSGVHTFPAVLQSSGLYSLSSVVTVPSSSLGTQTYICNVNHKPSNTKVDKKVEPKSC
notes: Masked polypeptide complex: anti-TROP2 F108A, anti-CD3 with P41S, A49G, N87S ; E227D; CD3 mask YLCGPDGDETLACY
For the molecule B3, in the assay with Human TROP2 Full length, the “H292 Cytotoxicity EC50 (pM)” value is 13700 pM and the “HCT116 Cytotoxicity EC50 (pM)” value was greater than 100000 pM. Moreover, the “CyTROP2 HEK293 EC50 (pM)” value in the assay with Cyno TROP2 Full length came to 665 pM. The same molecule had a half-maximal effective concentration (EC50) with CD3 of 136 nM. The EC50 in [1] stood at 1090 nM.

B4: PC-46 (bispecific antibody)
light: B1 light
heavy: not shown
notes: Masked polypeptide complex: anti-TROP2 F108A, anti-CD3 N30Q, I109V, G172A, V231A
Turning to B4, the “H292 Cytotoxicity EC50 (pM)” value with Human TROP2 Full length was greater than 100000 pM. Further, the “CyTROP2 HEK293 EC50 (pM)” value with Cyno TROP2 Full length was found to be 45600 pM. The results for the EC50 (with CD3; in assay [1]) were 556 nM and 2550 nM, respectively.

B5: PC-36 (bispecific antibody)
light: B1 light
heavy: not shown
notes: Masked polypeptide complex: anti-TROP2 F108A, anti-CD3 F104A
Turning to B5, the “H292 Cytotoxicity EC50 (pM)” value in the assay with Human TROP2 Full length is greater than 100000 pM. For the same molecule, in the assay with Cyno TROP2 Full length, the “CyTROP2 HEK293 EC50 (pM)” value was greater than 870000 pM. Besides, the values for the EC50 (in the assay with CD3; in [1]) were 2920 nM and 1470 nM, respectively.

B6: PC-45 (bispecific antibody)
light: B1 light
heavy: not shown
notes: Masked polypeptide complex: anti-TROP2 F108A, anti-CD3 N30Q, I109V, G172A, V231A; CD3 mask …
With B6, the “H292 Cytotoxicity EC50 (pM)” value in the assay with Human TROP2 Full length was greater than 100000 pM. In addition, the EC50 in the assay with CD3 came to 97 nM; in assay [1], 4010 nM.

B7: PC-35 (bispecific antibody)
light: B1 light
heavy: not shown
notes: as for B1
On to B7, for which, in the assay with Human TROP2 Full length, the “H292 Cytotoxicity EC50 (pM)” value is greater than 100000 pM and the “HCT116 Cytotoxicity EC50 (pM)” value was greater than 100000 pM. Further, in the assay with Cyno TROP2 Full length, the “CyTROP2 HEK293 EC50 (pM)” value is greater than 100000 pM. In the assay with CD3, this molecule returned an EC50 of 30 nM. The same molecule returned an EC50 in assay [1] of 2080 nM.

B8: PC-38 (bispecific antibody)
light: B1 light
heavy: not shown
notes: Masked polypeptide complex: anti-TROP2 F108A, anti-CD3 F240A; CD3 mask …
As to B8, in the assay with Human TROP2 Full length, the “H292 Cytotoxicity EC50 (pM)” value was greater than 100000 pM. The EC50 in the assay with CD3 is 77.6 nM; in [1], 3020 nM.

B9: PC-52 (bispecific antibody)
light: B1 light
heavy: not shown
notes: Masked polypeptide complex: anti-TROP2 F108A, anti-CD3 N236A
Take B9: the “H292 Cytotoxicity EC50 (pM)” value with Human TROP2 Full length turned out to be 98300 pM. For the same molecule, in the assay with Cyno TROP2 Full length, the “CyTROP2 HEK293 EC50 (pM)” value was 37700 pM. Further, the EC50 in the assay with CD3 was 242 nM; in [1], 1210 nM.

B10: PC-44 (bispecific antibody)
light: B1 light
heavy: not shown
notes: as for B6
As to B10, the “H292 Cytotoxicity EC50 (pM)” value with Human TROP2 Full length was 51000 pM. The values for the EC50 (with CD3; in [1]) were 77.3 nM and 1140 nM, respectively.

B11: PC-51 (bispecific antibody)
light: B1 light
heavy: not shown
notes: Masked polypeptide complex: anti-TROP2 F108A, anti-CD3 L232A
For B11, the “H292 Cytotoxicity EC50 (pM)” value in the assay with Human TROP2 Full length was greater than 100000 pM. In addition, the “CyTROP2 HEK293 EC50 (pM)” value with Cyno TROP2 Full length came out at 79300 pM. Further, the EC50 amounted to 410 nM with CD3 and 1160 nM in [1].

B12: PC-50 (bispecific antibody)
light: B1 light
heavy: not shown
notes: Masked polypeptide complex: anti-TROP2 F108A, anti-CD3 H101A
B12: the “H292 Cytotoxicity EC50 (pM)” value with Human TROP2 Full length is greater than 100000 pM. Besides, the “CyTROP2 HEK293 EC50 (pM)” value with Cyno TROP2 Full length is greater than 100000 pM. The EC50 came out at 454 nM with CD3 and 1220 nM in assay [1].

B13: PC-37 (bispecific antibody)
light: B1 light
heavy: not shown
notes: as for B8
Regarding B13, in the assay with Human TROP2 Full length, the “H292 Cytotoxicity EC50 (pM)” value was greater than 100000 pM and the “HCT116 Cytotoxicity EC50 (pM)” value is greater than 100000 pM. For the same molecule, in the assay with Cyno TROP2 Full length, the “CyTROP2 HEK293 EC50 (pM)” value is greater than 100000 pM. A half-maximal response with CD3 (EC50) required 1300 nM. This molecule also registered an EC50 in [1] of 1510 nM.

In the case of VDFCGLYHWPICYQ (cysteine pairing not given here; also: biotinylated, site not given here) [Peptide-8], the IC50 with TBD-11 (HC R98A) [2] came out at 300 nM; with TBD-17 (HC S104A) [3] it was 890 nM; with TBD-21 (HC F108A) [4] it was 610 nM; in the assay with TBD-22 (HC D109A) [5], 20 nM; with TBD-11 (HC R98A) [6], 620 nM; in the assay with TBD-17 (HC S104A) [7], 870 nM. For the same molecule, the IC50 with TBD-21 (HC F108A) [8] came to 1010 nM; in the assay with TBD-22 (HC D109A) [9], 80 nM.

Consider EDFCKLYNWPICYQ (cysteine pairing not given here; also: biotinylated, site not given here) [Peptide-7], for which the IC50 in the assay with TBD-11 (HC R98A) [2] is 1000 nM; with TBD-17 (HC S104A) [3], 3770 nM; with TBD-21 (HC F108A) [4], 4010 nM; with TBD-22 (HC D109A) [5], 130 nM.
